Results reported in patent publication US20170298113A1 (TEL HASHOMER MEDICAL RESEARCH INFRASTRUCTURE AND SERVICES, published 2017).
*1 amine or outer side, *2 acyl side, *3 side chain or, on linkers, in order; H or OH if unused. Bridges are numbered along the chain shown (N, C = ends). Primed or numbered codes have the meaning given here. [ ]: non-standard residue; d: D form. N(2-mercaptoethyl)Gly = O=C(CN(CCS[*:3])[*:1])[*:2]; FITC′ = fluorescein isothiocyanate; Orn = NCCC[C@H](N)C(=O)O; Aib = CC(C)(N)C(=O)O; GABA = NCCCC(=O)O

Experiments:
[1] = target: human somatostatin receptor subtype SSTR1 (human) (UniProt P30872); assay: FACS, transfected HEK-293 cells
[2] = target: human somatostatin receptor subtype SSTR4 (human) (UniProt P31391); assay: FACS, transfected HEK-293 cells
[3] = target: human somatostatin receptor subtype SSTR3 (human) (UniProt P32745); assay: FACS, transfected HEK-293 cells
[4] = target: human somatostatin receptor subtype SSTR2 (human) (UniProt P30874); assay: FACS, transfected HEK-293 cells
[5] = target: human somatostatin receptor subtype SSTR5 (human) (UniProt P35346); assay: FACS, transfected HEK-293 cells
[6] = target: human somatostatin receptor subtype SSTR1 (human) (UniProt P30872); assay: FACS, transfected HEK-293 cells; normalised to Compound 1
[7] = target: human somatostatin receptor subtype SSTR4 (human) (UniProt P31391); assay: as above
[8] = target: human somatostatin receptor subtype SSTR3 (human) (UniProt P32745); assay: as above
[9] = target: human somatostatin receptor subtype SSTR2 (human) (UniProt P30874); assay: as above
[10] = target: human somatostatin receptor subtype SSTR5 (human) (UniProt P35346); assay: as above
[11] = target: human somatostatin receptor subtype SSTR1 (human) (UniProt P30872); assay: FACS, transfected HEK-293 cells; row normalised to highest
[12] = target: human somatostatin receptor subtype SSTR4 (human) (UniProt P31391); assay: as above
[13] = target: human somatostatin receptor subtype SSTR3 (human) (UniProt P32745); assay: as above
[14] = target: human somatostatin receptor subtype SSTR2 (human) (UniProt P30874); assay: as above
[15] = target: human somatostatin receptor subtype SSTR5 (human) (UniProt P35346); assay: as above

human somatostatin receptor subtype SSTR3 (human), sequence (P32745 whole entry): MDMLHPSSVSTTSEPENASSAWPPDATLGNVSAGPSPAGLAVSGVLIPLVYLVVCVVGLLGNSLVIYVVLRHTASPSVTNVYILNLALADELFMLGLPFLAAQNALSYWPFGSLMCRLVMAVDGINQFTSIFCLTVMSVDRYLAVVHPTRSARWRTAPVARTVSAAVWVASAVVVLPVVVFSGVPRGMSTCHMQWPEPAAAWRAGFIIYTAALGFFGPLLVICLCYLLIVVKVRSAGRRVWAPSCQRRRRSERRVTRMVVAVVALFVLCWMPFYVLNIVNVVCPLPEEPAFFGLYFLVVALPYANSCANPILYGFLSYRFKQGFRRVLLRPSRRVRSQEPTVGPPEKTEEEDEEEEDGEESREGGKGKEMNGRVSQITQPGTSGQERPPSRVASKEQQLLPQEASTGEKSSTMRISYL
human somatostatin receptor subtype SSTR4 (human), sequence (P31391 whole entry): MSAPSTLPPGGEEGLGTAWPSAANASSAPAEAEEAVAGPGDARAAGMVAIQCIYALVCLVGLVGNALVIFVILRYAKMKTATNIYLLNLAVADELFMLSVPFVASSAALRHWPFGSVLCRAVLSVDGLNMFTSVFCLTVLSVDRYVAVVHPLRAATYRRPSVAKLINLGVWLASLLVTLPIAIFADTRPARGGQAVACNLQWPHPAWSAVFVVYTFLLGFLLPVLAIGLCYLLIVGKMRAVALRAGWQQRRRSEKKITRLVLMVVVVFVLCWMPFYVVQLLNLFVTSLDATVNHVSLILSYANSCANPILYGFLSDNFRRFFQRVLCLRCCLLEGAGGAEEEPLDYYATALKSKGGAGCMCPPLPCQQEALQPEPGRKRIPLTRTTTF
human somatostatin receptor subtype SSTR1 (human), sequence (P30872 whole entry): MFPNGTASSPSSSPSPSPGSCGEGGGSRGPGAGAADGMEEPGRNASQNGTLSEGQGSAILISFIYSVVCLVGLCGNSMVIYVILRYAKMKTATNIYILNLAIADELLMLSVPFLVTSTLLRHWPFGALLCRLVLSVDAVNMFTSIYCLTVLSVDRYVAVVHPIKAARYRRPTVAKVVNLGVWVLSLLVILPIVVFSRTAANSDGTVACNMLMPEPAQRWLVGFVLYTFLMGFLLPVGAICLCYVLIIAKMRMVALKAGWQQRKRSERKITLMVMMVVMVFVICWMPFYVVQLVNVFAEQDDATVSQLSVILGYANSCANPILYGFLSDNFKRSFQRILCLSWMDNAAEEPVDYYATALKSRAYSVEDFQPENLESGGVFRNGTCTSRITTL
human somatostatin receptor subtype SSTR5 (human), sequence (P35346 whole entry): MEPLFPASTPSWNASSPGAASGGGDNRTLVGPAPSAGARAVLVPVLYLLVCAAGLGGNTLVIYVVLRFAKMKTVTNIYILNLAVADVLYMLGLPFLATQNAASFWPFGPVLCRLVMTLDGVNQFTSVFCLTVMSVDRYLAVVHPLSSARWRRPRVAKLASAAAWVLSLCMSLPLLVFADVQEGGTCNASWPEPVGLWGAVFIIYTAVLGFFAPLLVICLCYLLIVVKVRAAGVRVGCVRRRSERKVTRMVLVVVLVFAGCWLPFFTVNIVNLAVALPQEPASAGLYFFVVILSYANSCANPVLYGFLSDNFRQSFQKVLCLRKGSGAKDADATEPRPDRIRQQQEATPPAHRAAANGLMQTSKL
human somatostatin receptor subtype SSTR2 (human), sequence (P30874 whole entry): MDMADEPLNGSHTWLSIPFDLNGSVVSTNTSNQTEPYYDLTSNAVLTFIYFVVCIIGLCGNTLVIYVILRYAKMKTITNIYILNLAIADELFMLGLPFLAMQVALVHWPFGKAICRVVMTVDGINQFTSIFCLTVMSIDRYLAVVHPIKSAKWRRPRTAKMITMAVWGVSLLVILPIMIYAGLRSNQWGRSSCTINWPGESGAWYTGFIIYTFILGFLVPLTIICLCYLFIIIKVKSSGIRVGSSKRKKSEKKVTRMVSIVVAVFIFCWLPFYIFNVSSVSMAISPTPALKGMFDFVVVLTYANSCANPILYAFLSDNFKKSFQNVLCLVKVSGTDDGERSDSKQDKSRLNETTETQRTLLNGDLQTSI

Row | Binder | Relative binding affinity [1] [%] | Relative binding affinity [2] [%] | Relative binding affinity [3] [%] | Relative binding affinity [4] [%] | Relative binding affinity [5] [%] | Binding affinity relative to Compound 1 (% of Compound 1) [6] | Binding affinity relative to Compound 1 (% of Compound 1) [7] | Binding affinity relative to Compound 1 (% of Compound 1) [8] | Binding affinity relative to Compound 1 (% of Compound 1) [9] | Binding affinity relative to Compound 1 (% of Compound 1) [10] | Adjusted binding affinity [11] | Adjusted binding affinity [12] | Adjusted binding affinity [13] | Adjusted binding affinity [14] | Adjusted binding affinity [15]
1 | XCFWXKTFX (FITC-GABA-DPhe-Cys*-Phe-Trp-DTrp-Lys-Thr-Phe-GlyS2*-NH2 (* = S-S bond; GlyS2 = N-thioethyl glycine; FITC-GABA on the N-terminal amine; C-terminal amide)) [Compound 1] | 3 | 22.5 | 17 | 6.5 | 28.5 | 100 | 100 | 100 | 100 | 100 | 0.11 | 0.79 | 0.6 | 0.23 | 1
2 | {FITC′-GABA}-[dF]RCF[dW]KTF[N(2-mercaptoethyl)Gly]-NH2 (disulfide 3-9) [Compound 2] | 5 | 4 | 4 | 5 | 5 | 167 | 18 | 24 | 77 | 18 | 1 | 0.8 | 0.8 | 1 | 1
3 | {FITC′-GABA}-[dF]CY[dW][Orn]TF[N(2-mercaptoethyl)Gly]-NH2 (disulfide 2-8) [Compound 7] | – | 1.5 | 2 | 1 | 1 | 0 | 7 | 12 | 15 | 4 | 0 | 0.75 | 1 | 0.5 | 0.5
4 | {FITC′-GABA}-[dF]CRFF[dW]KTF[N(2-mercaptoethyl)Gly]-NH2 (disulfide 2-10) [Compound 8] | 2.6 | 31.5 | 11.5 | 4.5 | 27.5 | 78 | 140 | 68 | 69 | 96 | 0.08 | 1 | 0.37 | 0.14 | 0.87
5 | XCFWXXTFX (FITC-GABA-DPhe-Cys*-Phe-Trp-DTrp-Orn-Thr-Phe-GlyS2*-NH2 (* = S-S bond; GlyS2 = N-thioethyl glycine; Orn = ornithine; C-terminal amide)) [Compound 3] | 3.6 | 13.3 | 15.7 | 4.3 | 9.3 | 120 | 59 | 92 | 66 | 33 | 0.23 | 0.85 | 1 | 0.27 | 0.59
6 | XXFWXKTFX (FITC-GABA-DPhe-HCys*-Phe-Trp-DTrp-Lys-Thr-Phe-GlyS2*-NH2 (* = S-S bond; HCys = homocysteine; GlyS2 = N-thioethyl glycine; C-terminal amide)) [Compound 11] | – | 29 | – | – | 41 | – | 129 | – | – | 144 | – | 0.71 | – | – | 1
7 | {FITC′-GABA}-[dF]CFW[dW][Aib]TF[N(2-mercaptoethyl)Gly]-NH2 (disulfide 2-9) [Compound 13] | 1 | 4 | 6 | – | 9 | 33 | 18 | 35 | 0 | 32 | 0.11 | 0.44 | 0.67 | 0 | 1
8 | XCFWXXTFX (FITC-GABA-DPhe-Cys*-Phe-Trp-DTrp-LysAc-Thr-Phe-GlyS2*-NH2 (* = S-S bond; LysAc = acetyllysine; GlyS2 = N-thioethyl glycine; C-terminal amide)) [Compound 14] | – | 3 | – | – | 2 | – | 13 | – | – | 7 | – | 1 | – | – | 0.67
9 | {FITC′-GABA}-[dF]CFW[dW]RTF[N(2-mercaptoethyl)Gly]-NH2 (disulfide 2-9) [Compound 15] | 4 | 9 | 13.5 | 5 | 7.5 | 133 | 40 | 79 | 77 | 26 | 0.3 | 0.67 | 1 | 0.37 | 0.56
10 | XCFWXXTFX (FITC-GABA-DPhe-Cys*-Phe-Trp-DTrp-HomoLys-Thr-Phe-GlyS2*-NH2 (* = S-S bond; HomoLys = homolysine; GlyS2 = N-thioethyl glycine; C-terminal amide)) [Compound 16] | – | 4.5 | 12 | 2.5 | 7 | 0 | 20 | 71 | 38 | 25 | 0 | 0.38 | 1 | 0.21 | 0.58
11 | {FITC′-GABA}-[dF]CYW[dW]KTF[N(2-mercaptoethyl)Gly]-NH2 (disulfide 2-9) [Compound 4] | 3.6 | 13.3 | 15.7 | 4.3 | 9.3 | 100 | 36 | 141 | 123 | 4 | 0.13 | 0.33 | 1 | 0.33 | 0.4
12 | {FITC′-GABA}-[dF]RCF[dW][Orn]TF[N(2-mercaptoethyl)Gly]-NH2 (disulfide 3-9) [Compound 5] | – | 1 | 3 | 1 | – | 0 | 4 | 18 | 15 | 0 | 0 | 0.33 | 1 | 0.33 | 0
13 | {FITC′-GABA}-[dF]RCY[dW]KTF[N(2-mercaptoethyl)Gly]-NH2 (disulfide 3-9) [Compound 6] | – | 1.5 | 22.5 | 1.5 | 0.5 | 0 | 7 | 132 | 23 | 2 | 0 | 0.07 | 1 | 0.07 | 0.02
